Measured values as given in patent US20240376170A1 (BRIGHT PEAK THERAPEUTICS, published 2024).
Bridges are numbered along the chain shown (N, C = ends). Primed or numbered codes have the meaning given here. [ ]: non-standard residue; d: D form. 8x polyethylene glycol‑amino = O-(8x polyethylene glycol-amino)-tyrosine, SITE 45; 9x polyethylene glycol‑azido = O-(9x polyethylene glycol-azido)-tyrosine, SITE 42; Ygp″ = O-(8x polyethylene glycol-amino)-tyrosine; Yn3″ = O-(9x polyethylene glycol-azido)-tyrosine; hSer = N[C@@H](CCO)C(=O)O; Nle = CCCC[C@H](N)C(=O)O

B1: CMP-329, uPa cleaved molecule (ligand)
chain: APTSSSTKKTQLQLEHLLLDLQEILNGINNYKNPKLTR[Nle]L[hSer]Y(9x polyethylene glycol‑azido)KFY(8x polyethylene glycol‑amino)[Nle]PKKATELKHLQCLEEELKPLEEVL[hSer]LAQSKNFHLRPRDLISNINVIVLELKGSETTF[hSer]CEYADETATIVEFLNRWITFSQSIISTLT
modifications: not fully specified; also: K9 and E23 side chains attached to another sequence, uPa-cleaved product, remnants not given here
B2: CMP-328, Matriptase cleaved molecule (ligand)
chain: APTSSSTKKTQLQLEHLLLDLQEILNGINNYKNPKLTR[Nle]L[hSer][Yn3″]KF[Ygp″][Nle]PKKATELKHLQCLEEELKPLEEVL[hSer]LAQSKNFHLRPRDLISNINVIVLELKGSETTF[hSer]CEYADETATIVEFLNRWITFSQSIISTLT
modifications: ends and bridges not checked; also: after matriptase cleavage, remnants of the Lys9–Glu23 peptide linker not given here
B3: CMP-330 (ligand)
chain: APTSSSTKKTQLQLEHLLLDLQEILNGINNYKNPKLTR[Nle]L[hSer]Y(9x polyethylene glycol‑azido)KFY(8x polyethylene glycol‑amino)[Nle]PKKATELKHLQCLEEELKPLEEVL[hSer]LAQSKNFHLRPRDLISNINVIVLELKGSETTF[hSer]CEYADETATIVEFLNRWITFSQSIISTLT
modifications: bridge 9-23; not fully specified (bridges)
B4: CMP-328, uPa cleaved molecule (ligand)
chain: APTSSSTKKTQLQLEHLLLDLQEILNGINNYKNPKLTR[Nle]L[hSer][Yn3″]KF[Ygp″][Nle]PKKATELKHLQCLEEELKPLEEVL[hSer]LAQSKNFHLRPRDLISNINVIVLELKGSETTF[hSer]CEYADETATIVEFLNRWITFSQSIISTLT
modifications: ends and bridges not checked; also: after uPa cleavage, remnants of the Lys9–Glu23 peptide linker not given here
B5: CMP-329 (ligand)
chain: APTSSSTKKTQLQLEHLLLDLQEILNGINNYKNPKLTR[Nle]L[hSer][Yn3″]KF[Ygp″][Nle]PKKATELKHLQCLEEELKPLEEVL[hSer]LAQSKNFHLRPRDLISNINVIVLELKGSETTF[hSer]CEYADETATIVEFLNRWITFSQSIISTLT
modifications: bridge 9-23; not fully specified (bridges); ends not checked
B6: CMP-329, Matriptase cleaved molecule (ligand)
chain: APTSSSTKKTQLQLEHLLLDLQEILNGINNYKNPKLTR[Nle]L[hSer][Yn3″]KF[Ygp″][Nle]PKKATELKHLQCLEEELKPLEEVL[hSer]LAQSKNFHLRPRDLISNINVIVLELKGSETTF[hSer]CEYADETATIVEFLNRWITFSQSIISTLT
modifications: ends and bridges not checked; also: after matriptase cleavage, remnants of the Lys9–Glu23 peptide linker not given here
B7: CMP-329, MMP2 cleaved molecule (ligand)
chain: APTSSSTKKTQLQLEHLLLDLQEILNGINNYKNPKLTR[Nle]L[hSer][Yn3″]KF[Ygp″][Nle]PKKATELKHLQCLEEELKPLEEVL[hSer]LAQSKNFHLRPRDLISNINVIVLELKGSETTF[hSer]CEYADETATIVEFLNRWITFSQSIISTLT
modifications: ends and bridges not checked; also: after MMP2 cleavage, remnants of the Lys9–Glu23 peptide linker not given here

Molecular target: T1, IL-2 receptor βγ complex (human, UniProt P14784 27-551; P31785 23-369)
T1 sequence (looked up) 1: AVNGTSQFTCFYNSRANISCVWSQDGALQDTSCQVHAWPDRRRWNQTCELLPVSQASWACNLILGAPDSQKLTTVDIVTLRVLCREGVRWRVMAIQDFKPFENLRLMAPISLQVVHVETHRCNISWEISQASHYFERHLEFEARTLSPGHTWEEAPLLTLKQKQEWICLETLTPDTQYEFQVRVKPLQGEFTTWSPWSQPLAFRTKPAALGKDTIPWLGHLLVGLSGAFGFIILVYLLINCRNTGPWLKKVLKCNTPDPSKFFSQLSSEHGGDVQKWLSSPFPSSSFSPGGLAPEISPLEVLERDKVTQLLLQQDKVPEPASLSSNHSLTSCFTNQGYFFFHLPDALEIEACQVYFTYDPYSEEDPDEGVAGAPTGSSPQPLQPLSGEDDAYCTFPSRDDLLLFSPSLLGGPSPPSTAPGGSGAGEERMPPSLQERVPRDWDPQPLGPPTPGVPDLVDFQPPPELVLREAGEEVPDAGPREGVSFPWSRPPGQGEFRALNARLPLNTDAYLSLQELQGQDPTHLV
T1 sequence (looked up) 2: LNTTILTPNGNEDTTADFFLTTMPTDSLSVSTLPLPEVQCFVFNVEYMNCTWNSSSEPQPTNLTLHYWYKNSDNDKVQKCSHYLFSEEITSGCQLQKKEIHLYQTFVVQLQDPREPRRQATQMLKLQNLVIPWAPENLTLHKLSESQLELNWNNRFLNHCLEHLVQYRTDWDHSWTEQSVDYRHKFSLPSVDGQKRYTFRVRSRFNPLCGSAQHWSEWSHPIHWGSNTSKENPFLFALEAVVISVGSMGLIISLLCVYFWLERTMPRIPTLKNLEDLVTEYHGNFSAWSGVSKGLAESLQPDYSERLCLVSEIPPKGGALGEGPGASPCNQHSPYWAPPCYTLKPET
Assay: cell-based or functional assay

Binder | Average EC50, pSTAT5 Assay in NK cells [nM]
B1 | 18.1
B2 | 4.28
B3 | 20.3
B4 | 2.96
B5 | 20.6
B6 | 14.4
B7 | 0.687
